T1: EsCas13d, nuclease-dead (Eubacterium siraeum, UniProt B0MS50, R295A;H300A;R849A;H854A)
T1 sequence: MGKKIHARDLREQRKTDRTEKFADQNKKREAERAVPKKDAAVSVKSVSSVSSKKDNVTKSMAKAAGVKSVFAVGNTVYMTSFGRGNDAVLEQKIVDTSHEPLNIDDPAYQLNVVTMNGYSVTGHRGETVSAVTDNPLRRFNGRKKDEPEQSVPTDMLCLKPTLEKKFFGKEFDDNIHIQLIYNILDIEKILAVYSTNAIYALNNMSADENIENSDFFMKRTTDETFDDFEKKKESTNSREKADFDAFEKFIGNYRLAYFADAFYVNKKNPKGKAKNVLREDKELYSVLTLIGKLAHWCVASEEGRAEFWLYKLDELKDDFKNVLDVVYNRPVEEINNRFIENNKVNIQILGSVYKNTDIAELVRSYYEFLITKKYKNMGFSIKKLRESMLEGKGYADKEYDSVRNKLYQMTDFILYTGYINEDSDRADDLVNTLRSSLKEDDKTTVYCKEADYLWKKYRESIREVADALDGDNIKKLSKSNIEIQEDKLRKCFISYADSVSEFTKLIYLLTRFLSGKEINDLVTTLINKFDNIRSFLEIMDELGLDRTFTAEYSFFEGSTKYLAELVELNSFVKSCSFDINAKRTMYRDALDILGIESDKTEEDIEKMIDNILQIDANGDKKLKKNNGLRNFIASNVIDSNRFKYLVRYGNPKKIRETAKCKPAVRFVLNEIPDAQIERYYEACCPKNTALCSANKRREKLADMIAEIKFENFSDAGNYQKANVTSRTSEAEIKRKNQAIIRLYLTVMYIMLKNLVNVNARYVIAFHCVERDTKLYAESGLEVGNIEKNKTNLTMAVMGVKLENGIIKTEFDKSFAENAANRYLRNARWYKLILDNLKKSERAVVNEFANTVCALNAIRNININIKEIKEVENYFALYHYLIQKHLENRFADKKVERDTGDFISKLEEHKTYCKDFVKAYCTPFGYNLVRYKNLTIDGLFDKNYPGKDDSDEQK

B1: target 3 C1A,U2C (mixed)
RNA 1: CACCCGUGCAAAAUUGCAGGGGUCUAAAACGACCUGAAUAUUUCAGAUCAAA
RNA 2: GGGAAUGGAUCCACAUCUACGAAUUCGUUUUUGAUCUGAAAUAUUCAGGCAUGCAGAUCGGAAGAGCACACGU
B2: target 3 del1,del15 (mixed)
RNA 1: CACCCGUGCAAAAUUGCAGGGGUCUAAAACGACCUGAAUAUUUCAGAUCAAA
RNA 2: GGGAAUGGAUCCACAUCUACGAAUUCGUUUUUGAUCGAAAUAUUCAGGUUGCAGAUCGGAAGAGCACACGU
B3: target 3 insA 3' of 7,insG 3' of 7 (mixed)
RNA 1: CACCCGUGCAAAAUUGCAGGGGUCUAAAACGACCUGAAUAUUUCAGAUCAAA
RNA 2: GGGAAUGGAUCCACAUCUACGAAUUCGUUUUUGAUCUGAAAUAUUAGCAGGUCUGCAGAUCGGAAGAGCACACGU
B4: target 3 C6U,A12C (mixed)
RNA 1: CACCCGUGCAAAAUUGCAGGGGUCUAAAACGACCUGAAUAUUUCAGAUCAAA
RNA 2: GGGAAUGGAUCCACAUCUACGAAUUCGUUUUUGAUCUGACAUAUUUAGGUCUGCAGAUCGGAAGAGCACACGU
B5: target 3 insC 3' of 9,insU 3' of 3 (mixed)
RNA 1: CACCCGUGCAAAAUUGCAGGGGUCUAAAACGACCUGAAUAUUUCAGAUCAAA
RNA 2: GGGAAUGGAUCCACAUCUACGAAUUCGUUUUUGAUCUGAAAUACUUCAGGUUCUGCAGAUCGGAAGAGCACACGU
B6: target 3 G3C,A9G (mixed)
RNA 1: CACCCGUGCAAAAUUGCAGGGGUCUAAAACGACCUGAAUAUUUCAGAUCAAA
RNA 2: GGGAAUGGAUCCACAUCUACGAAUUCGUUUUUGAUCUGAAAUGUUCAGCUCUGCAGAUCGGAAGAGCACACGU
B7: target 3 A18U,U22A (mixed)
RNA 1: CACCCGUGCAAAAUUGCAGGGGUCUAAAACGACCUGAAUAUUUCAGAUCAAA
RNA 2: GGGAAUGGAUCCACAUCUACGAAUUCGUUAUUGUUCUGAAAUAUUCAGGUCUGCAGAUCGGAAGAGCACACGU
B8: target 3 U2A,U7C (mixed)
RNA 1: CACCCGUGCAAAAUUGCAGGGGUCUAAAACGACCUGAAUAUUUCAGAUCAAA
RNA 2: GGGAAUGGAUCCACAUCUACGAAUUCGUUUUUGAUCUGAAAUAUCCAGGACUGCAGAUCGGAAGAGCACACGU
B9: target 3 U20A,U21G (mixed)
RNA 1: CACCCGUGCAAAAUUGCAGGGGUCUAAAACGACCUGAAUAUUUCAGAUCAAA
RNA 2: GGGAAUGGAUCCACAUCUACGAAUUCGUUUGAGAUCUGAAAUAUUCAGGUCUGCAGAUCGGAAGAGCACACGU
B10: target 3 insU 3' of 22,insG 3' of 1 (mixed)
RNA 1: CACCCGUGCAAAAUUGCAGGGGUCUAAAACGACCUGAAUAUUUCAGAUCAAA
RNA 2: GGGAAUGGAUCCACAUCUACGAAUUCGUUUUUUGAUCUGAAAUAUUCAGGUCGUGCAGAUCGGAAGAGCACACGU
B11: target 3 C1U,U2C (mixed)
RNA 1: CACCCGUGCAAAAUUGCAGGGGUCUAAAACGACCUGAAUAUUUCAGAUCAAA
RNA 2: GGGAAUGGAUCCACAUCUACGAAUUCGUUUUUGAUCUGAAAUAUUCAGGCUUGCAGAUCGGAAGAGCACACGU
B12: target 3 insC 3' of 7,insA 3' of 7 (mixed)
RNA 1: CACCCGUGCAAAAUUGCAGGGGUCUAAAACGACCUGAAUAUUUCAGAUCAAA
RNA 2: GGGAAUGGAUCCACAUCUACGAAUUCGUUUUUGAUCUGAAAUAUUCACAGGUCUGCAGAUCGGAAGAGCACACGU
B13: target 3 U2G,G4A (mixed)
RNA 1: CACCCGUGCAAAAUUGCAGGGGUCUAAAACGACCUGAAUAUUUCAGAUCAAA
RNA 2: GGGAAUGGAUCCACAUCUACGAAUUCGUUUUUGAUCUGAAAUAUUCAAGGCUGCAGAUCGGAAGAGCACACGU
B14: target 3 G3U,U7C (mixed)
RNA 1: CACCCGUGCAAAAUUGCAGGGGUCUAAAACGACCUGAAUAUUUCAGAUCAAA
RNA 2: GGGAAUGGAUCCACAUCUACGAAUUCGUUUUUGAUCUGAAAUAUCCAGUUCUGCAGAUCGGAAGAGCACACGU
B15: target 3 insU 3' of 9,insA 3' of 6 (mixed)
RNA 1: CACCCGUGCAAAAUUGCAGGGGUCUAAAACGACCUGAAUAUUUCAGAUCAAA
RNA 2: GGGAAUGGAUCCACAUCUACGAAUUCGUUUUUGAUCUGAAAUAUUUCAAGGUCUGCAGAUCGGAAGAGCACACGU
B16: target 3 G3C (mixed)
RNA 1: CACCCGUGCAAAAUUGCAGGGGUCUAAAACGACCUGAAUAUUUCAGAUCAAA
RNA 2: GGGAAUGGAUCCACAUCUACGAAUUCGUUUUUGAUCUGAAAUAUUCAGCUCUGCAGAUCGGAAGAGCACACGU
B17: target 3 C1G,G3C (mixed)
RNA 1: CACCCGUGCAAAAUUGCAGGGGUCUAAAACGACCUGAAUAUUUCAGAUCAAA
RNA 2: GGGAAUGGAUCCACAUCUACGAAUUCGUUUUUGAUCUGAAAUAUUCAGCUGUGCAGAUCGGAAGAGCACACGU
B18: target 3 insA 3' of 2,insU 3' of 1 (mixed)
RNA 1: CACCCGUGCAAAAUUGCAGGGGUCUAAAACGACCUGAAUAUUUCAGAUCAAA
RNA 2: GGGAAUGGAUCCACAUCUACGAAUUCGUUUUUGAUCUGAAAUAUUCAGGUACUUGCAGAUCGGAAGAGCACACGU
B19: target 3 C1A,G3C (mixed)
RNA 1: CACCCGUGCAAAAUUGCAGGGGUCUAAAACGACCUGAAUAUUUCAGAUCAAA
RNA 2: GGGAAUGGAUCCACAUCUACGAAUUCGUUUUUGAUCUGAAAUAUUCAGCUAUGCAGAUCGGAAGAGCACACGU
B20: target 3 U2A,U22G (mixed)
RNA 1: CACCCGUGCAAAAUUGCAGGGGUCUAAAACGACCUGAAUAUUUCAGAUCAAA
RNA 2: GGGAAUGGAUCCACAUCUACGAAUUCGUUGUUGAUCUGAAAUAUUCAGGACUGCAGAUCGGAAGAGCACACGU
B21: target 3 insC 3' of 11,insG 3' of 7 (mixed)
RNA 1: CACCCGUGCAAAAUUGCAGGGGUCUAAAACGACCUGAAUAUUUCAGAUCAAA
RNA 2: GGGAAUGGAUCCACAUCUACGAAUUCGUUUUUGAUCUGAAACUAUUGCAGGUCUGCAGAUCGGAAGAGCACACGU
B22: target 3 insC 3' of 22,insA 3' of 3 (mixed)
RNA 1: CACCCGUGCAAAAUUGCAGGGGUCUAAAACGACCUGAAUAUUUCAGAUCAAA
RNA 2: GGGAAUGGAUCCACAUCUACGAAUUCGUUUCUUGAUCUGAAAUAUUCAGGAUCUGCAGAUCGGAAGAGCACACGU
B23: target 3 insA 3' of 22,insU 3' of 11 (mixed)
RNA 1: CACCCGUGCAAAAUUGCAGGGGUCUAAAACGACCUGAAUAUUUCAGAUCAAA
RNA 2: GGGAAUGGAUCCACAUCUACGAAUUCGUUUAUUGAUCUGAAAUUAUUCAGGUCUGCAGAUCGGAAGAGCACACGU
B24: target 3 C1G,A9U (mixed)
RNA 1: CACCCGUGCAAAAUUGCAGGGGUCUAAAACGACCUGAAUAUUUCAGAUCAAA
RNA 2: GGGAAUGGAUCCACAUCUACGAAUUCGUUUUUGAUCUGAAAUUUUCAGGUGUGCAGAUCGGAAGAGCACACGU
B25: target 3 G3C,U7A (mixed)
RNA 1: CACCCGUGCAAAAUUGCAGGGGUCUAAAACGACCUGAAUAUUUCAGAUCAAA
RNA 2: GGGAAUGGAUCCACAUCUACGAAUUCGUUUUUGAUCUGAAAUAUACAGCUCUGCAGAUCGGAAGAGCACACGU
B26: target 1 U8A,C22A (mixed)
RNA 1: CACCCGUGCAAAAAUGCAGGGGUCUAAAACUGAGCGGAUAACCUCUCUAUGG
RNA 2: GGGAAUGGAUCCACAUCUACGAAUUCGUAACAUAGAGAGGUUAACCGCUCACCGAGAUCGGAAGAGCACACGU
B27: target 1 insG 3' of 21,insA 3' of 3 (mixed)
RNA 1: CACCCGUGCAAAAAUGCAGGGGUCUAAAACUGAGCGGAUAACCUCUCUAUGG
RNA 2: GGGAAUGGAUCCACAUCUACGAAUUCGUACCGAUAGAGAGGUUAUCCGCUACACCGAGAUCGGAAGAGCACACGU
B28: target 1 G5C,G15U (mixed)
RNA 1: CACCCGUGCAAAAAUGCAGGGGUCUAAAACUGAGCGGAUAACCUCUCUAUGG
RNA 2: GGGAAUGGAUCCACAUCUACGAAUUCGUACCAUAGAUAGGUUAUCCCCUCACCGAGAUCGGAAGAGCACACGU

The binders below were run against T1, EsCas13d, nuclease-dead (assay: crRNA (strand 1, pre-loaded); Mg2+; 40 mM Tris-HCl pH 7.5, 150 mM NaCl, 6 mM MgCl2, 1 mM DTT, 0.1% Tween-20, 0.2 mg/ml BSA; 25 C; 10 min per concentration, then washed). Details: tags: His6-TwinStrep-SUMO cleaved; N-terminal SNAP kept (SNAP-Surface 488); label: 3' end held by stalled T7 RNA polymerase.

Compared with B1, B2 is 3.3-fold higher in Kd: 18.6 ± 3.7 nM for the first, 62 ± 18 nM for the second.

Going from B3 to B4, the Kd rises from 30.4 ± 3.7 nM to 72 ± 12.5 nM (2.4-fold). The first binds more tightly here.

Compared with B5, B6 is 2.1-fold lower in Kd: 114 ± 29 nM for the first, 55.5 ± 5.5 nM for the second.

Going from B7 to B8, the Kd falls from 97.5 ± 30.5 nM to 38 ± 13 nM (2.6-fold).

Going from B9 to B10, the Kd falls from 98 ± 39.5 nM to 32.5 ± 5.5 nM (3-fold).

First: B11
Second: B12
The Kd of the first is 4.9-fold higher: 54 ± 18.5 nM for the first, 11 ± 1.4 nM for the second. The second binds more tightly here.

Compared with B13, B14 is 43-fold higher in Kd: 2.01 ± 0.17 nM for the first, 86 ± 36 nM for the second. The first binds more tightly here.

Compared with B15, B16 is 4.3-fold lower in Kd: 85 ± 40 nM for the first, 19.9 ± 1.35 nM for the second.

First: B17
Second: B18
The Kd of the first is 3.2-fold lower: 26.5 ± 5 nM for the first, 85.5 ± 20.5 nM for the second. The first binds more tightly here.

B19 and B20 are the same in Kd: 65.5 ± 29.5 nM for the first, 65.5 ± 11.5 nM for the second.

B21 and B22 are within error of each other in Kd: 49 ± 11.5 nM for the first, 65.5 ± 14 nM for the second.

B23 and B24 are within error of each other in Kd: 72.5 ± 15.5 nM for the first, 100 ± 40 nM for the second.

B25 and B26 are within error of each other in Kd: 32.9 ± 3.6 nM for the first, 31.1 ± 2.2 nM for the second.

Going from B27 to B28, the Kd falls from 54 ± 12 nM to 28.6 ± 2.4 nM (1.9-fold).

From paper PMC10786891, “Massively parallel profiling of RNA-targeting CRISPR-Cas13d”
